Experimental data taken from patent US20190048095A1 (BIO THERA SOLUTIONS, published 2019).

B1: Batansine-0806 (anti-TROP2 antibody BAT0806 conjugated with 3AA-MDC) (antibody)
light: DIQLTQSPSSLSASVGDRVSITCKASQDVSIAVAWYQQKPGKAPKLLIYSASYRYTGVPDRFSGSGSGTDFTLTISSLQPEDFAVYYCQQHYITPLTFGAGTKVEIKRTVAAPSVFIFPPSDEQLKSGTASVVCLLNNFYPREAKVQWKVDNALQSGNSQESVTEQDSKDSTYSLSSTLTLSKADYEKHKVYACEVTHQGLSSPVTKSFNRGEC
heavy: not shown
modifications: 3AA-MDC (batansine maytansinoid-linker) on cysteine thiols freed by partial TCEP reduction; positions not given
B2: Batansine-0808 (anti-TROP2 antibody BAT0808 conjugated with 3AA-MDC) (antibody, human IgG1, kappa)
light: B1 light
heavy: not shown
modifications: 3AA-MDC on site-mutated (engineered) cysteine(s); position not printed for this antibody; glycan with fucose content of 0-5%
B3: BAT0806-CL2A-SN-38 (anti-TROP2 antibody BAT0806 conjugated with CL2A-SN-38) (antibody, human IgG1, kappa)
light: B1 light
heavy: not shown
modifications: CL2A-SN-38 on cysteine thiols freed by TCEP reduction; positions not given
B4: Batansine-0807 (anti-TROP2 antibody BAT0807 conjugated with 3AA-MDC) (antibody, human IgG1, kappa)
light: B1 light
heavy: not shown
modifications: 3AA-MDC on site-mutated (engineered) cysteine(s); position not printed for this antibody

What was measured:
[1] = target: T1, TROP2 (TACSTD2), on TROP2 positive human tumor cell lines MDA-MB-468, A431 and N87 (human, UniProt P09758 27-323); assay: cell-based or functional assay
T1 sequence (looked up): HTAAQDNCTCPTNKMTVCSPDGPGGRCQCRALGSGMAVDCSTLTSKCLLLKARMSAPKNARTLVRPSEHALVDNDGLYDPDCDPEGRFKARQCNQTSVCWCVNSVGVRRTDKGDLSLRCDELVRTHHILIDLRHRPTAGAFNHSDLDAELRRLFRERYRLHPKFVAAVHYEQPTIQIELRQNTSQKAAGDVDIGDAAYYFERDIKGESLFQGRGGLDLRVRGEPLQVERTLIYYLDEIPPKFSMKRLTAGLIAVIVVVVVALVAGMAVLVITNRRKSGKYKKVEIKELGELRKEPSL

[2] = target: T1, TROP2 (TACSTD2), on TROP2 positive …; assay: cell-based or functional assay; remark: listed apart in the source

Binder	EC50, proliferation inhibition of A431 cells (CCK8, 72 h) [1] [nM]	EC50, proliferation inhibition of MDA-MB-468 cells (CCK8, 72 h) [1] [nM]	EC50, proliferation inhibition of N87 cells (CCK8, 72 h) [1] [nM]	EC50 (nM), synergistic ADCC, A431 with PBMC (PBMC cell:target cell 10:1) [2] [nM]	EC50 (nM), cell proliferation, A431 [2] [nM]	EC50 (nM), cell proliferation, MDA-MB-468 [2] [nM]	EC50 (nM), cell proliferation, N87 [2] [nM]	EC50 (nM), synergistic ADCC, A431 with PBMC (PBMC cell:target cell 5:1) [2] [nM]
B1	0.53	3.21	0.34	0.006	–	–	–	–
B2	1.53	5.61	1.47	0.001	2.89	1.95	0.56	–
B3	–	–	–	–	1.26	1.84	1.84	0.143
B4	1.73	2.89	0.77	0.011	–	–	–	–
